Entries after “also recorded” stand apart in the source; their conditions may differ. Non-standard residues stand in square brackets, D forms with d. Residues, ends and D or L forms follow the SMILES beside them. *: point of attachment. Sta = CC(C)C[C@H](N)[C@@H](O)CC(=O)O; Isovaleryl = CC(C)CC(=O)*

One data set deals with casein. Put plainly: General protease activity, EnzChek protease assay. The settings on record: casein substrate; FabULOUS 5 μg, FabRICATOR 10 μg, IdeSORK2.0 10 μg. The class given is biochemical. As to the method: FIG. 2. General protease activity. General protease activity was measured with the EnzCHECK protease assay, using casein as a substrate.
General protease activity was determined using the EnzChek Protease Assay kit, according to manufacturer's instructions. As a positive control the general protease FabULOUS (SpeB, 5 μg) was used, and as a negative control the IgG-specific protease FabRICATOR (IdeS, 10 μg). IdeSORK2.0 was added to a total quantity of 10 μg.

For the next data set, the system named is IdeSork2.0. Kind of data set: Protease inhibitor assay. The settings on record: IgG1 pre-incubated with inhibitor, IdeSork2.0 1:5, overnight at 37° C., SDS-PAGE. In kind it is biochemical, Streptococcus krösus. As to the method:
FIG. 4. Protease inhibitor sensitivity of IdeSork2.0.
IgG1 (trastuzumab) was pre-incubated with a set of protease inhibitors (G-Biosciences) before addition of IdeSork2.0 (of SEQ ID NO: 3) (1:5), and the mixture was allowed to incubate overnight at 37° C. before analysis on SDS-PAGE.

The test system of another data set is IgG1. Kind of data set: Comparison to other IgG proteases: IgG1. In kind it is biochemical. The note with it: SDS-PAGE. As to the method:
(§1) FIG. 10. IdeSork2.0 is having a similar activity compared to IdeS and IdeZ. To investigate if IdeSork2.0 is hydrolyzing IgG in a similar way as IdeS and IdeZ they were all incubated against IgG1 and IgG2 and analyzed on SDS-PAGE. The cleavage patterns look identical, with both IdeSork2.0 and IdeS having less activity towards IgG2.
(§2) To further look into the activity of IdeSORK2.0, its activity was compared with IdeS and IdeZ against both IgG1 and IgG2.

The subject of a further data set is IgG2. Kind of data set: Comparison to other IgG proteases: IgG2. The note with it: SDS-PAGE. In kind it is biochemical. As to the method: as §1, §2
In a further data set the test system is IgG in human serum. Kind of data set: Activity of IgG hydrolases in human serum. The settings on record: serum (100%), E:S 1:40, 0-4 hours at 37° C., non-reduced SDS-PAGE. The class given is biochemical. As to the method: FIG. 15. Activity of IgG hydrolases in human serum. Serum (100%) was spiked with IgG hydrolases and activity was analyzed over time using non-reduced SDS-PAGE.
For serum activity assays, an E: S ratio of 1:40 (assuming 10 mg/mL IgG in serum) was used, incubating 0-4 hours at 37° C. before analysis on a non-reduced SDS-PAGE. All enzymes were supplied by Genovis AB.

The test system of another data set is human IgG. The note with it: in particular when cleaving IgG2; cited from earlier work.
Data set [1] concerns the target denatured and reduced IgG.

With “FabULOUS: general protease (SpeB), positive control [reference compound]”, the “General protease activity (signal)” value in the data set with casein is listed as “high signal”.
For `O=C(O)CN(CCN(CC(=O)O)CC(=O)O)CC(=O)O` [EDTA], the “Inhibition of IdeSork2.0 hydrolysis of IgG1 (trastuzumab)” value in the data set on IdeSork2.0 was “unaffected; also recorded: besides aprotinin, EDTA, and pepstatin”.
On the same count and under the same terms, next, `CC(C)C[C@H](NC(=O)[C@@H](O)[C@H](N)Cc1ccccc1)C(=O)O` [Bestatin]: “only partly inhibitory”; `CC(C)CC(=O)N[C@H](C(=O)N[C@H](C(=O)N[C@@H](CC(C)C)[C@@H](O)CC(=O)N[C@@H](C)C(=O)N[C@@H](CC(C)C)[C@@H](O)CC(=O)O)C(C)C)C(C)C` [pepstatin] (Isovaleryl-VV[Sta]A[Sta]-OH): “besides aprotinin, EDTA, and pepstatin”.
Consider aprotinin, for which the “Inhibition of IdeSork2.0 hydrolysis of IgG1 (trastuzumab)” value in the data set on IdeSork2.0 is “besides aprotinin, EDTA, and pepstatin”.

B1: IdeS (Immunoglobulin G-degrading enzyme of S. pyogenes) (protein)
chain: DSFSANQEIRYSEVTPYHVTSVWTKGVTPPANFTQGEDVFHAPYVANQGWYDITKTFNGKDDLLCGAATAGNMLHWWFDQNKDQIKRYLEEHPEKQKINFNGEQMFDVKEAIDTKNHQLDSKLFEYFKEKAFPYLSTKHLGVFPDHVIDMFINGYRLSLTNHGPTPVKEGSKDPRGGIFDAVFTRGDQSKLLTSRHDFKEKNLKEISDLIKKELTEGKALGLSHTYANVRINHVINLWGADFDSNGNLKAIYVTDSDSNASIGMKKYFVGVNSAGKVAISAKEIKEDNIGAQVLGLFTLSTGQDSWNQTN
Turning to B1, the “hydrolysis of IgG, SDS-PAGE” value in the data set with human IgG1 was “All enzymes were able to hydrolyze the antibodies in seemingly an identical fashion, though slightly different efficiently”; with human IgG2, “All enzymes were able to hydrolyze the antibodies in seemingly an identical fashion, though slightly different efficiently”.

B2: IdeS: Immunoglobulin G-degrading enzyme of S. pyogenes, IgG-specific cysteine protease (protein)
chain: B1 chain
Turning to B2, the “Hydrolysis of IgG1” value with IgG1 is “able to hydrolyze”. For the same molecule, the “Hydrolysis of IgG2” value in the data set on IgG2 was “able to hydrolyze; also recorded: less activity”. Also, in the data set with casein, the “General protease activity (signal)” value is listed as “almost no signal”. In addition, the “Immunoglobulin cleavage activity in the presence of human serum” value in the data set on IgG in human serum is “immunoglobulin cleavage activity”.

B3: IdeZ (protein)
chain: DDYQRNATEAYAKEVPHQITSVWTKGVTPLTPEQFRYNNEDVIHAPYLAHQGWYDITKAFDGKDNLLCGAATAGNMLHWWFDQNKTEIEAYLSKHPEKQKIIFNNQELFDLKAAIDTKDSQTNSQLFNYFRDKAFPNLSARQLGVMPDLVLDMFINGYYLNVFKTQSTDVNRPYQDKDKRGGIFDAVFTRGDQTTLLTARHDLKNKGLNDISTIIKQELTEGRALALSHTYANVSISHVINLWGADFNAEGNLEAIYVTDSDANASIGMKKYFVGINAHGHVAISAKKIEGENIGAQVLGLFTLSSGKDIWQKLS
Regarding B3, the “hydrolysis of IgG, SDS-PAGE” value with human IgG1 is listed as “All enzymes were able to hydrolyze the antibodies in seemingly an identical fashion, though slightly different efficiently”; with human IgG2, “All enzymes were able to hydrolyze the antibodies in seemingly an identical fashion, though slightly different efficiently”.

B4: IdeZ: IgG cysteine protease produced by Streptococcus equi ssp. zooepidemicus (protein)
chain: B3 chain
As for B4, the “Hydrolysis of IgG1” value with IgG1 was “able to hydrolyze”. The “Hydrolysis of IgG2” value in the data set with IgG2 was “able to hydrolyze”. For the same molecule, in the data set on human IgG, the “IgG cysteine protease activity against human IgG” value is reported as “considerably lower than that of IdeS”. Moreover, the “Immunoglobulin cleavage activity in the presence of human serum” value in the data set on IgG in human serum is recorded as “immunoglobulin cleavage activity”.

B5: IdeSORK2.0 (protein)
chain: MSKRKLLKKIEKKDTSSVLTQKKQTKTLWADGVQVDDKDFKPSTENFGTNYLAAEYGIGKGYYDINKKFDGTDDDLCSGVVAANQLHWWLDRNKDYIEKYRQQSKDNGVTIGNTDIFELNKLHDEDQSNFFDFIKKSFGNKFLQPERLLNMYINGYGYLTSQDKAKTSQPSPSKLNFFQKVFKNNLLTDKTPINDIDEFSSQTKNALQNHKVLAVSFASIKNRGLGHVVTVWGADFDENGKVVALYVTDSDDRSKNIGNAKLGMKKLRIEVSAQDSSTIKLTGFEDKNSGGSLRHLYSLSTGEQIWKKYFEETHHHHHH
With B5, the “hydrolysis of IgG, SDS-PAGE” value with porcine IgG was “only showed activity against horse and guinea pig IgG (no activity on porcine IgG)”; with monoclonal IgG4, “can also hydrolyze monoclonal IgG4”; in the data set with mouse IgG2a it was “the protease is active against mIgG2a”; with rat IgG, “only showed activity against horse and guinea pig IgG (no activity on rat IgG)”; in the data set with sheep IgG, “only showed activity against horse and guinea pig IgG (no activity on sheep IgG)”; with mouse IgG2b, “but not mIgG1 or mIgG2b”. The “hydrolysis of IgG, SDS-PAGE” value with cow IgG is “only showed activity against horse and guinea pig IgG (no activity on cow IgG)”; in data set [1] it was “IdeSORK2.0 is not active against denatured and reduced IgG”; with dog IgG it was “only showed activity against horse and guinea pig IgG (no activity on dog IgG)”; in the data set with guinea pig IgG, “only showed activity against horse and guinea pig IgG”; in the data set with horse IgG it was “only showed activity against horse and guinea pig IgG”; with mouse IgG1 it was “but not mIgG1 or mIgG2b”. The “hydrolysis of IgG” value in the data set with IVIG is recorded as “Incubation with polyclonal IgG (e.g. IVIG) resulted in near complete hydrolysis”. The “percentage hydrolysis of IgG” value with IgG is on record as “A ratio of 1:40 hydrolyzes >95% of IgG in 30-60 minutes”. The “hydrolysis, SDS-PAGE” value with human IgA is recorded as “IdeSORK2.0 is not active towards IgA”.

The record behind these values is patent publication US20250320480A1, “Immunoglobulin Cleaving Enzyme” (priority 2021, published 2025).
